Measurements: paper PMC6609482
Like-named read-outs stand apart in the source and are kept apart here.

Columns and labels:
[1] = molecular target: T1, HMCES SRAP domain (SRAPd) WT (Homo sapiens, UniProt Q96FZ2 2-270); assay: fluorescence polarization
T1 sequence: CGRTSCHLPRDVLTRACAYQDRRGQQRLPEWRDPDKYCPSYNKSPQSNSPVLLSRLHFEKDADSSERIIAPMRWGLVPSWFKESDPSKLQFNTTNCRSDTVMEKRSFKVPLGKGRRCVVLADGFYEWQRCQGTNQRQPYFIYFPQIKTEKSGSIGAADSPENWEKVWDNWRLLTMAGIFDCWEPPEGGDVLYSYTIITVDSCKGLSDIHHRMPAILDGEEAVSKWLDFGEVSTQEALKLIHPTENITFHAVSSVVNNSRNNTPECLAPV

[2] = molecular target: T1, HMCES SRAP domain (SRAPd) WT; assay: crystal structure
[3] = molecular target: T1, HMCES SRAP domain (SRAPd) WT; assay: crystal structure; remark: listed apart in the source

B1: 3-nt gap DNA (dsDNA)
DNA 1: TCTTCTGGTCCGGATGGTAGTTAAGTGTTGAC
DNA 2: GGACCAGAAGA
DNA 3: GTCAACACTTAACTACCA
binding signal [1]: ~7 fold higher affinity than dsDNA of same sequence

B2: DNA_3nt (3' overhang) (dsDNA)
DNA 1: CCAGACGTT
DNA 2: GTCTTG
binding result [2]: binds

B3: DNA_6nt (3' overhang) (dsDNA)
DNA 1: CCAGACGTTGTT
DNA 2: GTCTTG
binding result [3]: binds
